From PMC12922752 (Science Advances, 2026)

B1: Rpt2 of the ATPase ring isolated from Saccharomyces cerevisiae (natural protein)
chain: MGQGVSSGQDKKKKKGSNQKPKYEPPVQSKFGRKKRKGGPATAEKLPNIYPSTRCKLKLLRMERIKDHLLLEEEFVSNSEILKPFEKKQEEEKKQLEEIRGNPLSIGTLEEIIDDDHAIVTSPTMPDYYVSILSFVDKELLEPGCSVLLHHKTMSIVGVLQDDADPMVSVMKMDKSPTESYSDIGGLESQIQEIKESVELPLTHPELYEEMGIKPPKGVILYGAPGTGKTLLAKAVANQTSATFLRIVGSELIQKYLGDGPRLCRQIFKVAGENAPSIVFIDEIDAIGTKRYDSNSGGEREIQRTMLELLNQLDGFDDRGDVKVIMATNKIETLDPALIRPGRIDRKILFENPDLSTKKKILGIHTSKMNLSEDVNLETLVTTKDDLSGADIQAMCTEAGLLALRERRMQVTAEDFKQAKERVMKNKVEENLEGLYL

Experiments:
[1] = biological target: Rpn1, human, recombinant full-length (human) (UniProt Q13200); assay: ITC
Sequence of Rpn1, human, recombinant full-length (human) (Q13200 whole entry, the tested form may be a part): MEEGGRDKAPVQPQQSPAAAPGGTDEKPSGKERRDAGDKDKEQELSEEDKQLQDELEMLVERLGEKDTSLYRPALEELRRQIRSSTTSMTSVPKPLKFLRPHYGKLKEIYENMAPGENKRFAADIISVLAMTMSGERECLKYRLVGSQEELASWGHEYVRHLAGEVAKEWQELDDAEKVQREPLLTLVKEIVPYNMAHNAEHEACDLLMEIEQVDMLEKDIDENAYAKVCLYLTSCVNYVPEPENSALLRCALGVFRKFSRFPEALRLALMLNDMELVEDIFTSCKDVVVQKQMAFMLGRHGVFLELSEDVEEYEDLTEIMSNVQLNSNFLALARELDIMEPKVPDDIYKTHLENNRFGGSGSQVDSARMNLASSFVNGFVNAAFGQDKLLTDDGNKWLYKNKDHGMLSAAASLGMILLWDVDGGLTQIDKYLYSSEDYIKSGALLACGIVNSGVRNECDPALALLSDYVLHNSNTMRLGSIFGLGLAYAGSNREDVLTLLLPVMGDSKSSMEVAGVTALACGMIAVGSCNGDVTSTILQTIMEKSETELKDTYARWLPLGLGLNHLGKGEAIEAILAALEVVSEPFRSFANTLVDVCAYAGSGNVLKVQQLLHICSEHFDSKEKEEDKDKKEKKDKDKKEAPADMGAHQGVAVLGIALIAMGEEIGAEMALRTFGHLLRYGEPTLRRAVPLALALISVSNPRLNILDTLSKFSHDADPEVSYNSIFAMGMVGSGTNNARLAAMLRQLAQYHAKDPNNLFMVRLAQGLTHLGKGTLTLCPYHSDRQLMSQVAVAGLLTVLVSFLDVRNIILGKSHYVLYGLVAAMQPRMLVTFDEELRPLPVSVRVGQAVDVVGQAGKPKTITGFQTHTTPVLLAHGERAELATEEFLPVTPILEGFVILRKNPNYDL

[2] = biological target: Hsp70 nucleotide-binding domain (Hsp70NBD); assay: ITC
[3] = biological target: Rpn1, human, recombinant full-length (human, UniProt Q13200 1-908); assay: cross-linking
Sequence of Rpn1, human, recombinant full-length (Q13200 whole entry): as the sequence (Q13200 whole entry, the tested form may be a part) above

Molecule | Kd [1] [nM] | Kd [2] [nM] | binding result [3]
Bcl-2-associated anthanogene 1 (Bag1), full-length (natural protein) | 500 | 50 | –
B1 | – | – | binds
